Laboratory results as given in US20200399712A1, “COMPOSITIONS AND METHODS FOR THE DIAGNOSIS AND DETECTION OF TUMORS AND CANCER PROGNOSIS” (priority 2018, published 2020).
“Also recorded” adds a separate entry of the source.

What was measured:
HPV-16 genome = assay: qPCR sensitivity against HPV-16 copy number (known-copy HPV-16 DNA among 10 ng normal human DNA); conditions: for number of reactions against 10 HPV-16 copies / number of reactions under 30 HPV-16 copies: samples tested 3 times, 10 ng DNA from healthy individual
Description: (§1) All samples were run in triplicates.
To seek the most promising primer-probe set in the viewpoint of sensitivity, Applicants evaluated the sensitivity analysis for these candidate primer-probe sets. […] Therefore, the sensitivity of E6 (FIG. 3A) and E7 (FIG. 3B) was also 30 copies. […] The candidate primer-probe sets were the “Min-4” (FIG. 3C), “Min-5” (FIG. 3D), “Min-6” (FIG. 3E), “Max-10” (FIG. 3F), “E6-11” (FIG. 3G), “E6-13” (FIG. 3H), respectively.
In addition, Applicants performed sensitivity analysis to identify the most sensitive primer/probe set from among the candidate sets.
To validate the function of primer/probe sets, Applicants calculated the slope of delta Rn against cycle threshold for HPV-16 copy number detection from defined HPV copy number DNA derived from CaSki cell line.

HPV-16 [1] = assay: qPCR sensitivity against HPV-HNSCC tumor samples diluted among 10 ng normal human DNA; conditions: for sensitivity under 100 cells / sensitivity under single cells / sensitivity under 10 cells: 32 HPV-HNSCC tumor samples; for sensitivity under single cells: 6.6 pg DNA; for sensitivity under 10 cells: 66 pg DNA; for Sensitivity, 1 cell / Sensitivity, 3 cells / Sensitivity, 10 cells / Sensitivity, 30 cells / Sensitivity, 100 cells: tumor DNA dilution, fraction of 32 samples
Description: Quantitative real-time polymerase chain reaction (qRT-PCR) was used to examine the threshold in each experiment. qRT-PCR was performed using Quant Studio 6 Flex Real-Time PCR System (Thermo Fisher Scientific). All samples were run in triplicates. HPV-16 viral amplicon copy number estimations were developed using the CaSki cell line. After amplification of the amplicon by PCR, DNA concentration was calculated by weight NanoDrop®, then converted to DNA copy number by calculation based on the molecular weight of the double stranded amplicon. […] In the other 32 HPV-HNSCC cohort, Applicants diluted the tumor sample to 990 pg, 198 pg, 99 pg, 39.6 pg, 7.9 pg, 3.2 pg, and 1.6 pg of amount tumor weight, (correspond to 150, 30, 15, 6, 1.2, 0.6, and 0.3 cells: assumption that 1 tumor cell have 6.6 pg DNA (=3*10^9 (human DNA genome bp)*2 (diploid)*1.67*10^(−24) g (weight/Dalton))) combined with 10 ng normal leukocyte human DNA and compare the threshold of each primer-probe sets.
In this regard, Applicants investigated the other 32 HPV-HNSCC tumor samples. From the assumption that 1 cell tumor DNA contain 6.6 pg DNA, Applicants made the dilution series by DNA derived from normal lymphocyte as described and decide the threshold for each primer-probe set.
Furthermore, to determine whether these designed primer/probe sets also have a high sensitivity in a separate cohort, Applicants performed PCR in a validation cohort of 32 additional primary tumor samples with validated presence of HPV-16. Applicants prepared serial of dilutions of tumor DNA in normal lymphocyte DNA from non-cancer individuals and determined the threshold for each primer/probe set and defined amplification thresholds expressed in number of tumor cells for each sample (Table 5).

HPV-16 [2] = assay: qPCR on 20 ng DNA from saliva samples of HPV-HNSCC patients; conditions: 28 HPV-HNSCC saliva samples
Description: as §1
The sensitivity of detection from saliva 20 ng DNA samples is 32.1% (9/28) in E6 primer-probe sets, 42.9% (12/28) in E7 primer-probe sets, 35.7% (10/28) in “Min-5” primer-probe sets, 46.4% (13/28) in “Max-10” primer-probe sets. The sensitivity of combination of “5” and “10” is 50% (14/28) and that of E6 and E7 is 42.9% (12/28). By the standard curve analysis, the copy numbers that detected by “Max-10” primer-probe sets were the highest in these 4 primer-probe sets. The slope of standard curve is −3.5 in “Min-5” primer-probe sets when delta Rn is plotted against cycle threshold (FIG. 5).

[3] = among 10 ng normal DNA, triplicate qPCR

B1: BR E6-1: HPV-16 E6 region (172-373 bp) primer/probe set, SEQ ID NO: 58-60 (nucleic acid)
DNA 1: CAGTTACTGCGACGTGAGGT
DNA 2: ACAGCATATGGATTCCCATCTC
DNA 3: ACTTTGCTTTTCGGGATTTATGCATAGTA
modifications: chemistry not given here
reaction under 30 copies of HPV-16 genome (HPV-16 genome; [3]): consistently amplified
reaction under 30 copies of HPV-16 genome (HPV-16 genome; among 10 ng normal DNA, triplicate qPCR, listed as E6-11): react consistently
number of reactions against 10 HPV-16 copies (HPV-16 genome): one
number of reactions under 30 HPV-16 copies (HPV-16 genome): 3 reactions
sensitivity under 100 cells (HPV-16 [1]): 87.5%
sensitivity under single cells (HPV-16 [1]): 3.1%
sensitivity under 10 cells (HPV-16 [1]): 46.9%
Threshold of tumor cell numbers for HPV-16 detection (HPV-16 [1]; Sample # 1): 150.0 tumor cells
Threshold of tumor cell numbers for HPV-16 detection (HPV-16 [1]; Sample # 2): 30.0 tumor cells
Threshold of tumor cell numbers for HPV-16 detection (HPV-16 [1]; Sample # 3): 150.0 tumor cells
Threshold of tumor cell numbers for HPV-16 detection (HPV-16 [1]; Sample # 4): 60.0 tumor cells
Threshold of tumor cell numbers for HPV-16 detection (HPV-16 [1]; Sample # 5): 30.0 tumor cells
Threshold of tumor cell numbers for HPV-16 detection (HPV-16 [1]; Sample # 6): 60.0 tumor cells
Threshold of tumor cell numbers for HPV-16 detection (HPV-16 [1]; Sample # 7): 30.0 tumor cells
Threshold of tumor cell numbers for HPV-16 detection (HPV-16 [1]; Sample # 8): 150.0 tumor cells
Threshold of tumor cell numbers for HPV-16 detection (HPV-16 [1]; Sample # 9): 30.0 tumor cells
Threshold of tumor cell numbers for HPV-16 detection (HPV-16 [1]; Sample # 10): 30.0 tumor cells
Threshold of tumor cell numbers for HPV-16 detection (HPV-16 [1]; Sample # 11): 30.0 tumor cells
Threshold of tumor cell numbers for HPV-16 detection (HPV-16 [1]; Sample # 12): 15.0 tumor cells
Threshold of tumor cell numbers for HPV-16 detection (HPV-16 [1]; Sample # 13): 60.0 tumor cells
Threshold of tumor cell numbers for HPV-16 detection (HPV-16 [1]; Sample # 14): 60.0 tumor cells
Threshold of tumor cell numbers for HPV-16 detection (HPV-16 [1]; Sample # 15): 30.0 tumor cells
Threshold of tumor cell numbers for HPV-16 detection (HPV-16 [1]; Sample # 16): 6.0 tumor cells
Threshold of tumor cell numbers for HPV-16 detection (HPV-16 [1]; Sample # 17): 6.0 tumor cells
Threshold of tumor cell numbers for HPV-16 detection (HPV-16 [1]; Sample # 18): 1.2 tumor cells
Threshold of tumor cell numbers for HPV-16 detection (HPV-16 [1]; Sample # 19): 6.0 tumor cells
Threshold of tumor cell numbers for HPV-16 detection (HPV-16 [1]; Sample # 20): 1.2 tumor cells
Threshold of tumor cell numbers for HPV-16 detection (HPV-16 [1]; Sample # 21): 1.2 tumor cells
Threshold of tumor cell numbers for HPV-16 detection (HPV-16 [1]; Sample # 22): 6.0 tumor cells
Threshold of tumor cell numbers for HPV-16 detection (HPV-16 [1]; Sample # 23): 1.2 tumor cells
Threshold of tumor cell numbers for HPV-16 detection (HPV-16 [1]; Sample # 24): 1.2 tumor cells
Threshold of tumor cell numbers for HPV-16 detection (HPV-16 [1]; Sample # 25): 1.2 tumor cells
Threshold of tumor cell numbers for HPV-16 detection (HPV-16 [1]; Sample # 26): 1.2 tumor cells
Threshold of tumor cell numbers for HPV-16 detection (HPV-16 [1]; Sample # 27): 1.0 tumor cells
Threshold of tumor cell numbers for HPV-16 detection (HPV-16 [1]; Sample # 28): 1.0 tumor cells
Threshold of tumor cell numbers for HPV-16 detection (HPV-16 [1]; Sample # 29): 1.0 tumor cells
Threshold of tumor cell numbers for HPV-16 detection (HPV-16 [1]; Sample # 30): 150.0 tumor cells
Threshold of tumor cell numbers for HPV-16 detection (HPV-16 [1]; Sample # 31): 0.6 tumor cells
Threshold of tumor cell numbers for HPV-16 detection (HPV-16 [1]; Sample # 32): 15.0 tumor cells
Sensitivity, 1 cell (HPV-16 [1]): 0.031
Sensitivity, 3 cells (HPV-16 [1]): 0.344
Sensitivity, 10 cells (HPV-16 [1]): 0.469
Sensitivity, 30 cells (HPV-16 [1]): 0.750
Sensitivity, 100 cells (HPV-16 [1]): 0.875

B2: E6: previously designed (historical) HPV-16 E6 primers and Taqman probe, SEQ ID NO: 7-9, positive control (nucleic acid)
DNA 1: TCAGGACCCACAGGAGCG
DNA 2: CCTCACGTCGCAGTAACTGTTG
DNA 3: CCCAGAAAGTTACCACAGTTATGCACAGAGCT
modifications: Taqman probe, labels not given here
sensitivity (HPV-16 copies) (HPV-16 genome; HPV-16 genome among normal 10 ng DNA samples, consistent triplicate reaction): 30 copies
reaction under 10 copies of HPV-16 genome (HPV-16 genome; [3]): reacted inconsistently
reaction under 30 copies of HPV-16 genome (HPV-16 genome; [3]): reacted consistently triplicate; also recorded: reacted consistently in triplicates
number of reactions against 10 HPV-16 copies (HPV-16 genome): one
number of reactions under 30 HPV-16 copies (HPV-16 genome): 3 reactions
sensitivity under 100 cells (HPV-16 [1]): 90.6%
sensitivity under single cells (HPV-16 [1]): 12.5%
sensitivity under 10 cells (HPV-16 [1]): 53.1%
Threshold of tumor cell numbers for HPV-16 detection (HPV-16 [1]; Sample # 1): 150.0 tumor cells
Threshold of tumor cell numbers for HPV-16 detection (HPV-16 [1]; Sample # 2): 30.0 tumor cells
Threshold of tumor cell numbers for HPV-16 detection (HPV-16 [1]; Sample # 3): 6.0 tumor cells
Threshold of tumor cell numbers for HPV-16 detection (HPV-16 [1]; Sample # 4): 150.0 tumor cells
Threshold of tumor cell numbers for HPV-16 detection (HPV-16 [1]; Sample # 5): 30.0 tumor cells
Threshold of tumor cell numbers for HPV-16 detection (HPV-16 [1]; Sample # 6): 150.0 tumor cells
Threshold of tumor cell numbers for HPV-16 detection (HPV-16 [1]; Sample # 7): 30.0 tumor cells
Threshold of tumor cell numbers for HPV-16 detection (HPV-16 [1]; Sample # 8): 15.0 tumor cells
Threshold of tumor cell numbers for HPV-16 detection (HPV-16 [1]; Sample # 9): 60.0 tumor cells
Threshold of tumor cell numbers for HPV-16 detection (HPV-16 [1]; Sample # 10): 30.0 tumor cells
Threshold of tumor cell numbers for HPV-16 detection (HPV-16 [1]; Sample # 11): 60.0 tumor cells
Threshold of tumor cell numbers for HPV-16 detection (HPV-16 [1]; Sample # 12): 15.0 tumor cells
Threshold of tumor cell numbers for HPV-16 detection (HPV-16 [1]; Sample # 13): 6.0 tumor cells
Threshold of tumor cell numbers for HPV-16 detection (HPV-16 [1]; Sample # 14): 6.0 tumor cells
Threshold of tumor cell numbers for HPV-16 detection (HPV-16 [1]; Sample # 15): 6.0 tumor cells
Threshold of tumor cell numbers for HPV-16 detection (HPV-16 [1]; Sample # 16): 6.0 tumor cells
Threshold of tumor cell numbers for HPV-16 detection (HPV-16 [1]; Sample # 17): 30.0 tumor cells
Threshold of tumor cell numbers for HPV-16 detection (HPV-16 [1]; Sample # 18): 6.0 tumor cells
Threshold of tumor cell numbers for HPV-16 detection (HPV-16 [1]; Sample # 19): 1.2 tumor cells
Threshold of tumor cell numbers for HPV-16 detection (HPV-16 [1]; Sample # 20): 0.5 tumor cells
Threshold of tumor cell numbers for HPV-16 detection (HPV-16 [1]; Sample # 21): 1.2 tumor cells
Threshold of tumor cell numbers for HPV-16 detection (HPV-16 [1]; Sample # 22): 0.3 tumor cells
Threshold of tumor cell numbers for HPV-16 detection (HPV-16 [1]; Sample # 23): 1.2 tumor cells
Threshold of tumor cell numbers for HPV-16 detection (HPV-16 [1]; Sample # 24): 1.2 tumor cells
Threshold of tumor cell numbers for HPV-16 detection (HPV-16 [1]; Sample # 25): 0.3 tumor cells
Threshold of tumor cell numbers for HPV-16 detection (HPV-16 [1]; Sample # 26): 0.6 tumor cells
Threshold of tumor cell numbers for HPV-16 detection (HPV-16 [1]; Sample # 27): 15.0 tumor cells
Threshold of tumor cell numbers for HPV-16 detection (HPV-16 [1]; Sample # 28): 3.0 tumor cells
Threshold of tumor cell numbers for HPV-16 detection (HPV-16 [1]; Sample # 29): 3.0 tumor cells
Threshold of tumor cell numbers for HPV-16 detection (HPV-16 [1]; Sample # 30): 15.0 tumor cells
Threshold of tumor cell numbers for HPV-16 detection (HPV-16 [1]; Sample # 31): 3.0 tumor cells
Threshold of tumor cell numbers for HPV-16 detection (HPV-16 [1]; Sample # 32): 15.0 tumor cells
Sensitivity, 1 cell (HPV-16 [1]): 0.125
Sensitivity, 3 cells (HPV-16 [1]): 0.250
Sensitivity, 10 cells (HPV-16 [1]): 0.531
Sensitivity, 30 cells (HPV-16 [1]): 0.844
Sensitivity, 100 cells (HPV-16 [1]): 0.906
sensitivity of detection from saliva 20 ng DNA samples (HPV-16 [2]): 32.1%
